Substitutions are numbered along the chain they refer to. Blank lines part the entries; values can stand above or below the binder they belong to.
How the values were obtained:
IL-13Rα1 [1] = target: T1, IL-13Rα1; experiment: SPR, kinetic (column K1)
T1 construct: also called IL13Ra1
T1 chain: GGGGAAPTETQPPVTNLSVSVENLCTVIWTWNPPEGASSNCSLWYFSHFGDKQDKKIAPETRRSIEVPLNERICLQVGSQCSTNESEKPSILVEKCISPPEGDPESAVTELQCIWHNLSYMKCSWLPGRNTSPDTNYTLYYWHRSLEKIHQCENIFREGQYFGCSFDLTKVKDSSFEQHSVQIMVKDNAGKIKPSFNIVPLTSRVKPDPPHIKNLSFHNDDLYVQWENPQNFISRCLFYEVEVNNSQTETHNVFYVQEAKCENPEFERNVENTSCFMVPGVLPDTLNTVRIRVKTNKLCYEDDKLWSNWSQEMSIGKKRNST

IL-13Rα1 [2] = target: T1, IL-13Rα1; experiment: SPR, kinetic (column K-1)
IL-13Rα2 [3] = target: T2, IL-13Rα2; experiment: SPR, kinetic (column K1)
T2 construct: also called IL13Ra2; CD213A2
T2 chain: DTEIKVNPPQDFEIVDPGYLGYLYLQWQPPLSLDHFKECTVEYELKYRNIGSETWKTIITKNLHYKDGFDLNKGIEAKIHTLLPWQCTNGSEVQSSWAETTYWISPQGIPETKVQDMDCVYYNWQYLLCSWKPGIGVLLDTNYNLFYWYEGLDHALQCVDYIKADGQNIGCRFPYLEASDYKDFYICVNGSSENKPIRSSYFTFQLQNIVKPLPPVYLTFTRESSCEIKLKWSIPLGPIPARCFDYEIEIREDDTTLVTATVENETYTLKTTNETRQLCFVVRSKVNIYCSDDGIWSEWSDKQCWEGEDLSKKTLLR

IL-13Rα2 [4] = target: T2, IL-13Rα2; experiment: SPR, kinetic (column K-1)
IL-13Rα1 [5] = target: T1, IL-13Rα1; experiment: SPR, column KD (eq)

- kon (IL-13Rα1 [1]): 2.8e+06 M⁻¹ s⁻¹
- koff (IL-13Rα1 [2]): 0.0082 s⁻¹
B1: A5 (ligand)
cytokine: PGPVPPSTALIELIEELINITQNQKAPLCNGSMVWSINLTAGMYCAALESLINVSGCSAIEKTQRMLSGFCPHKVSAGQFSSLHVKGSKIEVAQFVKDLLHHLRALMREGQFN
notes: grouped under 'IL-13Rα1 specific'; also called IL-13 variant A5

- kon (IL-13Rα1 [1]): 6.3e+06 M⁻¹ s⁻¹
- koff (IL-13Rα1 [2]): 0.0017 s⁻¹
B2: B2 (ligand)
cytokine: B1 cytokine with I11R, K86T, H101Y, M107F
notes: grouped under 'IL-13Rα1 specific'; also called IL-13 variant B2

- kon (IL-13Rα2 [3]): 1.94e+06 M⁻¹ s⁻¹
- koff (IL-13Rα2 [4]): 0.000764 s⁻¹
B3: C4 (ligand)
cytokine: PGPVPPSTAVRELIEELVNITQNQKAPLCNGSMVWSINLTAGMYCAALESLINVSGCSAIEKTQRMLSGFCPHKVSAGQFSSLHVRDTRIEVAQFVKDLLNHLKELFTEGQFN
notes: grouped under 'IL-13Rα2 specific'; also called IL-13 variant C4

- kon (IL-13Rα1 [1]): 2.9e+06 M⁻¹ s⁻¹
- koff (IL-13Rα1 [2]): 0.0034 s⁻¹
B4: A7 (ligand)
cytokine: B1 cytokine with L10I, I11R, K86R, M107F
notes: grouped under 'IL-13Rα1 specific'; also called IL-13 variant A7

- kon (IL-13Rα1 [1]): 1.64e+06 M⁻¹ s⁻¹
- koff (IL-13Rα1 [2]): 0.0033 s⁻¹
B5: A8 (ligand)
cytokine: B1 cytokine with L10I, I11R, K86R, G87S, K89R, A105T, M107F
notes: grouped under 'IL-13Rα1 specific'; also called IL-13 variant A8

- kon (IL-13Rα2 [3]): 6.41e+06 M⁻¹ s⁻¹
- koff (IL-13Rα2 [4]): 9.18e-07 s⁻¹
- Kd (IL-13Rα1 [5]): 1.6 µM
B6: C11 (ligand)
cytokine: B3 cytokine with V10H, R86T, D87G, T88R, R89K, N101L, E105K, T108K
notes: grouped under 'IL-13Rα2 specific'; also called IL-13 variant C11

- kon (IL-13Rα1 [1]): 1.77e+06 M⁻¹ s⁻¹
- koff (IL-13Rα1 [2]): 0.0033 s⁻¹
B7: A6 (ligand)
cytokine: B1 cytokine with L10I, I11R, I18L, K86M, G87K, M107F
notes: grouped under 'IL-13Rα1 specific'; also called IL-13 variant A6

- kon (IL-13Rα2 [3]): 1.77e+07 M⁻¹ s⁻¹
- koff (IL-13Rα2 [4]): 5.37e-05 s⁻¹
B8: D7 (ligand)
cytokine: B3 cytokine with V10A, V18F, R86K, D87K, N101I, K104R, E105K, T108K
notes: grouped under 'IL-13Rα2 specific'; also called IL-13 variant D7

- kon (IL-13Rα1 [1]): 1.64e+07 M⁻¹ s⁻¹
- koff (IL-13Rα1 [2]): 0.0013 s⁻¹
B9: A11 (ligand)
cytokine: B1 cytokine with L10V, I11R, K86R, G87S, H101F, A105T, M107F
notes: Grouped under 'IL-13Rα1 specific'; also called IL-13 variant A11

- kon (IL-13Rα1 [1]): 1.36e+06 M⁻¹ s⁻¹
- koff (IL-13Rα1 [2]): 0.024 s⁻¹
B10: B4 (ligand)
cytokine: B1 cytokine with I11S, K89M, H101Y, A105T, M107F
notes: grouped under 'IL-13Rα1 specific'; also called IL-13 variant B4

- kon (IL-13Rα1 [1]): 1.4e+06 M⁻¹ s⁻¹
- koff (IL-13Rα1 [2]): 0.0082 s⁻¹
B11: B6 (ligand)
cytokine: B1 cytokine with L10T, I11R, K86R, H101Y, A105T, M107F
notes: grouped under 'IL-13Rα1 specific'; also called IL-13 variant B6
